Source: publication PMC7105484, “Crystal structures of REF6 and its complex with DNA reveal diverse recognition mechanisms” (Cell Discovery, 2020)
Substitutions are numbered along the chain they refer to. Names may count otherwise.

Columns and labels:
REF6 ZnF1-4 WT [1] = target: T1, REF6 ZnF1-4 WT (Arabidopsis thaliana, UniProt Q9STM3 1223-1360); experiment: EMSA; MST: 20 mM HEPES pH 7.3, 150 mM NaCl, 0.2 mM TCEP, 0.5% CA-630, 25 C; EMSA: 30 uM protein, 10 uM dsDNA, 20 mM Tris pH 8.0, 100 mM NaCl, 2.5 mM MgCl2, 0.1% CA-630, 10% glycerol, 1 uM ZnSO4, 1 mM DTT, 4 C; conditions: protein: recombinant, tags: His6-MBP or GST tag, TEV-cleavable (cleaved when necessary)
T1 sequence: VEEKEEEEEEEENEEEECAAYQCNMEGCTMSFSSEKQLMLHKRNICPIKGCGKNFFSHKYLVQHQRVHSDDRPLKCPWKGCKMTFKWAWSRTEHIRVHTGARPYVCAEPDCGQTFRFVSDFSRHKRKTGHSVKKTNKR

REF6 ZnF1-4 WT [2] = target: T1, REF6 ZnF1-4 WT; experiment: MST; MST: 20 mM HEPES pH 7.3, 150 mM NaCl, 0.2 mM TCEP, 0.5% CA-630, 25 C; EMSA: 30 uM protein, 10 uM dsDNA, 20 mM Tris pH 8.0, 100 mM NaCl, 2.5 mM MgCl2, 0.1% CA-630, 10% glycerol, 1 uM ZnSO4, 1 mM DTT, 4 C; conditions: protein: recombinant, tags: His6-MBP or GST tag, TEV-cleavable (cleaved when necessary)
[3] = target: the molecule itself; experiment: SEC; analytical gel filtration, Superdex 200 10/300 GL, 5.0 mg mL^−1, no DNA; 20 mM HEPES pH 7.3, 500 mM NaCl, 2 mM β-mercaptoethanol
REF6 N1276F = target: T2, REF6 N1276F (Arabidopsis thaliana, UniProt Q9STM3 1223-1360, N1276F); experiment: MST; MST: 20 mM HEPES pH 7.3, 150 mM NaCl, 0.2 mM TCEP, 0.5% CA-630, 25 C; EMSA: 30 uM protein, 10 uM dsDNA, 20 mM Tris pH 8.0, 100 mM NaCl, 2.5 mM MgCl2, 0.1% CA-630, 10% glycerol, 1 uM ZnSO4, 1 mM DTT, 4 C; conditions: protein: recombinant; tags: His6-MBP or GST, TEV-cleavable; label: FAM in MST
T2 sequence: T1 sequence with N54F

REF6 ZnF1-4 WT [4] = target: T1, REF6 ZnF1-4 WT; experiment: MST; Hill coefficient 1.9; MST: 20 mM HEPES pH 7.3, 150 mM NaCl, 0.2 mM TCEP, 0.5% CA-630, 25 C; EMSA: 30 uM protein, 10 uM dsDNA, 20 mM Tris pH 8.0, 100 mM NaCl, 2.5 mM MgCl2, 0.1% CA-630, 10% glycerol, 1 uM ZnSO4, 1 mM DTT, 4 C; conditions: protein: recombinant; tags: His6-MBP or GST tag, TEV-cleavable (cleaved when necessary); label: FAM in MST

B1: CUC2-2 (dsDNA)
DNA 1: TCTCTCTGTCTTTTC
DNA 2: GAAAAGACAGAGAGA
B1: binds (REF6 ZnF1-4 WT [1]).

B2: CUC1-5 (dsDNA)
DNA 1: TTTCTCTGCTCAAAT
DNA 2: ATTTGAGCAGAGAAA
B2: binds (REF6 ZnF1-4 WT [1]; label: FAM in MST).

B3: CUC1-1 (dsDNA)
DNA 1: TTCCTCTGTTCTTAT
DNA 2: ATAAGAACAGAGGAA
B3: binds (REF6 ZnF1-4 WT [1]; label: FAM in MST).

B4: m5-m9'C (dsDNA)
DNA 1: CTTTCTCTGTTTTGTC
DNA 2: GGACAAAACAGAGAAA
modifications: methylcytosine at position 9 of strand 2 (9'C)
With B4 the Kd (REF6 ZnF1-4 WT [2]; label: FAM in MST, 5' overhang 1 nt on both strands (as m5)) was 5.9 µM.

B5: CUC2-4 (dsDNA)
DNA 1: TCCCTCTGTGCACGC
DNA 2: GCGTGCACAGAGGGA
B5: binds (REF6 ZnF1-4 WT [1]; label: FAM in MST).

B6: CUC2-1 (dsDNA)
DNA 1: TTGCTCTGTTAGTTC
DNA 2: GAACTAACAGAGCAA
B6: binds (REF6 ZnF1-4 WT [1]).

B7: CUC1-2 (dsDNA)
DNA 1: AGACTCTGTTTCAGA
DNA 2: TCTGAAACAGAGTCT
B7: binds (REF6 ZnF1-4 WT [1]).

B8: REF6 (residues 1223–1360) (domain or fragment, Arabidopsis thaliana, UniProt Q9STM3 1223-1360, looked up)
chain: T1 sequence
notes: The fusion tag was cleaved with TEV protease 'when necessary'
For B8, the “stoichiometry N” value [3] was 2.

B9: CUC1-3 (dsDNA)
DNA 1: GGACTCTGTTTTAGA
DNA 2: TCTAAAACAGAGTCC
With B9 the Kd (REF6 ZnF1-4 WT [2]; label: FAM in MST) was 1 µM.

B10: CUC1-6 (dsDNA)
DNA 1: TTGCTCTGTTCGTTC
DNA 2: GAACGAACAGAGCAA
B10: binds (REF6 ZnF1-4 WT [1]).

B11: m12 (G9A) (dsDNA)
DNA 1: CTTTCTCTATTTTGTC
DNA 2: GGACAAAATAGAGAAA
With B11 the Kd (REF6 ZnF1-4 WT [2]; label: FAM, 5' overhang 1 nt on both strands (as m5)) was 4.5 µM.

B12: REF6 fragment 1175–1360 (domain or fragment, Arabidopsis thaliana, UniProt Q9STM3 1175-1360, looked up)
chain: DSYMEGPSTRLRVRHQKPSRGSLETKPKKIGKKRSGNASFSRVATEKDVEEKEEEEEEEENEEEECAAYQCNMEGCTMSFSSEKQLMLHKRNICPIKGCGKNFFSHKYLVQHQRVHSDDRPLKCPWKGCKMTFKWAWSRTEHIRVHTGARPYVCAEPDCGQTFRFVSDFSRHKRKTGHSVKKTNKR
notes: source: E. coli BL21 (DE3), purified
With B12 the “stoichiometry N” value [3] was 2.

B13: CUC2-3 (dsDNA)
DNA 1: TAGCTCTGATAAAAT
DNA 2: ATTTTATCAGAGCTA
B13: binds (REF6 ZnF1-4 WT [1]).

B14: CUC1-4 (dsDNA)
DNA 1: TTACTCTGTTTGTAA
DNA 2: TTACAAACAGAGTAA
For B14, the Kd (REF6 ZnF1-4 WT [2]; label: FAM in MST) was 2.6 µM.

B15: CUC1-3+4 (dsDNA)
DNA 1: TCTAAAACAGAGTCCTCCTTACTCTGTTTGTAA
DNA 2: TTACAAACAGAGTAAGGAGGACTCTGTTTTAGA
For B15, the binding signal (REF6 N1276F) was 2.5 fold lower affinity than WT and the binding signal (REF6 ZnF1-4 WT [4]) was 5 fold higher affinity than CUC1-3 (13-fold than CUC1-4).

B16: REF6 fragment 1139–1360 (domain or fragment, Arabidopsis thaliana, UniProt Q9STM3 1139-1360, looked up)
chain: RSTAKRIAKTKTVQSSRDTKGRFLQEFASGKKNEELDSYMEGPSTRLRVRHQKPSRGSLETKPKKIGKKRSGNASFSRVATEKDVEEKEEEEEEEENEEEECAAYQCNMEGCTMSFSSEKQLMLHKRNICPIKGCGKNFFSHKYLVQHQRVHSDDRPLKCPWKGCKMTFKWAWSRTEHIRVHTGARPYVCAEPDCGQTFRFVSDFSRHKRKTGHSVKKTNKR
notes: as for B12
With B16 the “stoichiometry N” value [3] was 2.
